In patent publication US10865391B2, “Glutamate dehydrogenase mutants and their application in preparation of L-phosphinothricin” (ZHEJIANG UNIVERSITY, priority 2018, dated 2020):

Key:
[1] = Standard enzyme activity measurement toward PPO, crude enzyme (per volume fermentation broth); assay type: biochemical; conditions: toward PPO; for Enzyme activity of mutants (U/mL): crude enzyme, standard system, N.D. = no detectable activity; for Fold change: enzyme activity of mutant versus wild type
Description: The preserved recombinant E. coli is streaked onto the plate for activation. Single colonies are picked and inoculated into 5 mL LB liquid medium containing 50 μg/mL kanamycin and cultured at 37° C. for 12 h. The culture is transferred to 50 mL fresh LB liquid medium containing 50 μg/mL kanamycin at a 2% inoculum, and then incubated at 37° C. until the OD600 reaches 0.6; after that, add IPTG to a final concentration of 0.5 mM, and then proceed with induction culture under the temperature of 18° C. for 16 h.
After the cultivation, the culture is centrifuged at 10000 rpm for 10 min; discard supernatant, and collect cells. The harvested cells are washed for 2 times using pH 7.5 50 mM phosphate buffer. After that, the cells are re-suspend into the pH 7.5 phosphate buffer and disrupted ultrasonically (400W for 30 times, Ultrasonic time is 3 s, and the interval is 7 s). The cell disrupted solution is centrifuged at 12000 g for 5 min at 4° C. to remove the precipitate, and the supernatant obtained is the crude enzyme containing recombinant glutamate dehydrogenase
The standard enzyme activity measurement system: Appropriate amount of enzyme, 100 mM substrate, 10 mM coenzyme (NADH or NADPH), 500 mM NH4^+ ((NH4)2SO4); total system volume is up to 400 μL; reaction medium is pH 7.5 phosphate buffer. 35° C. reaction for 10 min; after that, add 40 uL 5 M NaOH to terminate reaction.
Definition of enzyme activity unit: The quantity of enzyme as required by generation of 1 μmol L-phosphinothricin per minute under standard reaction conditions.
Proceed with induction culture of constructed mutants, and prepare crude enzyme solution.

[2] = Preparation of L-phosphinothricin by coupling glutamate dehydrogenase with glucose dehydrogenase; assay type: biochemical; conditions: 500 mM PPO, NAD+, GluDH cells 1.25 g/L, 35° C.
Description: The reaction process is monitored by measuring the concentration of substrate in the reaction solution applying high-performance liquid chromatography (HPLC). HPLC analysis method is stated as follows: column model: Pntulips® QS-C18, 5 μm, 4.6 mm×250 mm. Mobile phase: 50 mM (NH4)2HPO4, added 1% of 10% tetrabutyl ammonium hydroxide, adjusted to pH 3.6 with 50% phosphoric acid(mass fraction), added 8% acetonitrile. Detective wave length is 205 nm; flow rate is 1.0 mL/min. Column temperature is 40° C.
The enantiomeric excess and concentration of product are determined through pre-column derivatization high-performance liquid chromatography; the specific analysis method is stated as follows:
(1) HPLC condition: column model: Pntulips® QS-C18, 5 μm, 4.6 mm×250 mm. Mobile phase: 50 mM Sodium acetate: Acetonitrile=8: 0.5 (v/v). Detective wave length: 338 nm. Flow rate: 0.85 mL/min. Column temperature: 30° C.
(2) Derivatization reagent: Weigh 0.03 g phthalaldehyde and 0.1 g N-acetyl-L-cysteine, and use 400 uL ethanol for solubilization; after that, add 4 mL 0.2 mol/L borate buffer (pH 9.8) and shake for dissolution prior to storage in the fridge under the temperature of 4° C. (no more than 4 days).
(3) Derivatization reaction and analysis: Add 150 μL derivatization reagent into 100 μL sample, mix and incubate at 25° C. for 5 min, and then inject 20 μL for analysis.
Culture recombinant E. coli expressing glutamate dehydrogenase (PpGluDH) and glucose dehydrogenase (BsGDH-2M, SEQ ID NO. 21) with method in Step 3 of Embodiment 1; proceed with centrifugal collection of cells and ultrasonic cell disruption to prepare crude enzyme solution.
(§1) The final volume of the reaction is 30 mL; each sample contains 500 mM substrate PPO, 600 mM glucose, 250 mM (NH4)2SO4 and 0.5 mM NADP^+. Concentration of glutamate dehydrogenase cells (dry weight) is 1.0 g/L; concentration of glucose dehydrogenase cells (dry weight) is 1.25 g/L. Use water bath to control the reaction temperature at 35° C.; titrate ammonia to control pH at 7.5 during the reaction process. Use non-chiral HPLC to determine residual concentration of PPO after reaction for 6 h; meanwhile, use pre-column derivatization HPLC to determine the concentration and ee value of formed L-phosphinothricin.
as §1, with “0.5” for “1.0”
as §1, with “NAD^+.” for “NADP^+.”, “1.25” for “1.0”
The final volume of the reaction is 30 mL; each sample contains 500 mM substrate PPO, 600 mM glucose, 250 mM (NH4)2SO4 and 0.5 mM NAD^+. Concentration of glutamate dehydrogenase cells (dry weight) is 1.25 g/L; concentration of glucose dehydrogenase cells (dry weight) is 1.25 g/L. Use water bath to control the reaction temperature at 35° C.; titrate ammonia to control pH at 7.5 during the reaction process. […]

| Molecule | Enzyme activity of mutants (U/mL) [1] [U/mL] | concentration of formed L-phosphinothricin ([2]; pH 7.5, 6 h) [g/L] | residual PPO ([2]; pH 7.5, 6 h) [mM] | substrate conversion ([2]; pH 7.5, 6 h) [%] | concentration of formed L-phosphinothricin ([2]; pH 7.5, 12 h) [g/L] | residual PPO ([2]; pH 7.5, 12 h) [mM] | substrate conversion ([2]; pH 7.5, 12 h) [%] | Fold change [1] |
| --- | --- | --- | --- | --- | --- | --- | --- | --- |
| CsGluDH-A164G: CsGluDH mutant A164G, SEQ ID NO. 17 (protein, Clostridium symbiosum glutamate dehydrogenase mutant) MSKYVDRVIAEVEKKYADEPEFVQTVEEVLSSLGPVVDAHPEYEEVALLERMVIPERVIEFRVPWEDDNGKVHVNTGYRVQFNGAIGPYKGGLRFAPSVNLSIMKFLGFEQAFKDSLTTLPMGGAKGGSDFDPNGKSDREVMRFCQAFMTELYRHIGPDIDVPGGDLGVGAREIGYMYGQYRKIVGGFYNGVLTGKARSFGGSLVRPEATGYGSVYYVEAVMKHENDTLVGKTVALAGFGNVAWGAAKKLAELGAKAVTLSGPDGYIYDPEGITTEEKINYMLEMRASGRNKVQDYADKFGVQFFPGEKPWGQKVDIIMPCATQNDVDLEQAKKIVANNIKYYIEVANMPTTNEALRFLMQQPNMVVAPSKAVNAGGVLVSGFEMSQNSERLSWTAEEVDSKLHQVMTDIHDGSAAAAERYGLGYNLVAGANIVGFQKIADAMMAQGIAW | 2.61 | 79.6 | 0 | 100 | – | – | – | – |
| CsGluDH-V378A: CsGluDH mutant V378A, SEQ ID NO. 18 (protein, Clostridium symbiosum glutamate dehydrogenase mutant) MSKYVDRVIAEVEKKYADEPEFVQTVEEVLSSLGPVVDAHPEYEEVALLERMVIPERVIEFRVPWEDDNGKVHVNTGYRVQFNGAIGPYKGGLRFAPSVNLSIMKFLGFEQAFKDSLTTLPMGGAKGGSDFDPNGKSDREVMRFCQAFMTELYRHIGPDIDVPAGDLGVGAREIGYMYGQYRKIVGGFYNGVLTGKARSFGGSLVRPEATGYGSVYYVEAVMKHENDTLVGKTVALAGFGNVAWGAAKKLAELGAKAVTLSGPDGYIYDPEGITTEEKINYMLEMRASGRNKVQDYADKFGVQFFPGEKPWGQKVDIIMPCATQNDVDLEQAKKIVANNIKYYIEVANMPTTNEALRFLMQQPNMVVAPSKAVNAGGALVSGFEMSQNSERLSWTAEEVDSKLHQVMTDIHDGSAAAAERYGLGYNLVAGANIVGFQKIADAMMAQGIAW | 1.76 | – | – | – | 78.5 | 1.8 | 99.6 | – |
| CgGluDH-A166G: CgGluDH mutant A166G, SEQ ID NO. 3 (protein, Corynebacterium glutamicum glutamate dehydrogenase mutant) MTVDEQVSNYYDMLLKRNAGEPEFHQAVAEVLESLKIVLEKDPHYADYGLIQRLCEPERQLIFRVPWVDDQGQVHVNRGFRVQFNSALGPYKGGLRFHPSVNLGIVKFLGFEQIFKNSLTGLPIGGGKGGSDFDPKGKSDLEIMRFCQSFMTELHRHIGEYRDVPGGDIGVGGREIGYLFGHYRRMANQHESGVLTGKGLTWGGSLVRTEATGYGCVYFVSEMIKAKGESISGQKIIVSGSGNVATYAIEKAQELGATVIGFSDSSGWVHTPNGVDVAKLREIKEVRRARVSVYADEVEGATYHTDGSIWDLKCDIALPCATQNELNGENAKTLADNGCRFVAEGANMPSTPEAVEVFRERDIRFGPGKAANAGGVATSALEMQQNASRDSWSFEYTDERLQVIMKNIFKTCAETAAEYGHENDYVVGANIAGFKKVADAMLAQGVI | 0.34 | – | – | – | – | – | – | 31 |
| CgGluDH-V376A: CgGluDH mutant V376A, SEQ ID NO. 4 (protein, Corynebacterium glutamicum glutamate dehydrogenase mutant) MTVDEQVSNYYDMLLKRNAGEPEFHQAVAEVLESLKIVLEKDPHYADYGLIQRLCEPERQLIFRVPWVDDQGQVHVNRGFRVQFNSALGPYKGGLRFHPSVNLGIVKFLGFEQIFKNSLTGLPIGGGKGGSDFDPKGKSDLEIMRFCQSFMTELHRHIGEYRDVPAGDIGVGGREIGYLFGHYRRMANQHESGVLTGKGLTWGGSLVRTEATGYGCVYFVSEMIKAKGESISGQKIIVSGSGNVATYAIEKAQELGATVIGFSDSSGWVHTPNGVDVAKLREIKEVRRARVSVYADEVEGATYHTDGSIWDLKCDIALPCATQNELNGENAKTLADNGCRFVAEGANMPSTPEAVEVFRERDIRFGPGKAANAGGAATSALEMQQNASRDSWSFEYTDERLQVIMKNIFKTCAETAAEYGHENDYVVGANIAGFKKVADAMLAQGVI | 2.48 | – | – | – | – | – | – | 225 |
| PeGluDH-A164G: PeGluDH mutant A164G, SEQ ID NO. 5 (protein, Pseudomonas entomophila glutamate dehydrogenase mutant) MIESVDHFLARLQQRDPAQPEFHQAVEEVLRSLWPFLEQNPHYLEAGILERMVEPERAVLFRVSWVDDQGKVQVNRGYRIQMSSAIGPYKGGLRFHPSVNLGVLKFLAFEQVFKNSLTSLPMGGGKGGSDFDPKGKSDAEVMRFCQAFMSELYRHIGADLDVPGGDIGVGAREIGFLFGQYKRLANQFTSVLTGKGMTYGGSLIRPEATGYGCVYFAEEMLKRQEQRIDGRRVAISGSGNVAQYAARKVMDLGGKVISLSDSEGTLFCEAGLTDEQWDALMELKNVKRGRISELAGRFGLEFRKGQTPWSLACDIALPCATQNELNADDARTLLRNGCICVAEGANMPTTLDAVDIFIEAGILYAPGKASNAGGVAVSGLEMSQNAMRLLWTAGEVDSKLHHIMQSIHHVCVHYGEEADGRINYVKGANIAGFVKVADAMLAQGVV | 11.29 | – | – | – | – | – | – | 110 |
